Entries after “also recorded” stand apart in the source; their conditions may differ.
How the values were obtained:
[1] = tested on: rNav1.2a/Kv2.1 VSD IV paddle chimera; assay: Two-electrode voltage-clamp, rNav1.2a/Kv2.1 VSD IV paddle chimera in Xenopus oocytes; format: cell-based, rat
Source text: The DNA sequence of rat (r)Nav1.2a (provided by A. Goldin, University of California, Irvine, Irvine, Calif.), rKv2.1 (provided by K. J. Swartz, National Institutes of Health), and the rNav1.2a/Kv2.1 VSD II or IV chimera was confirmed by automated DNA sequencing, and cRNA was synthesized using T7 polymerase (mMessage mMachine™ kit; Life Technologies) after linearizing the DNA with appropriate restriction enzymes. Channels were expressed in Xenopus oocytes (obtained from Xenopus 1) and studied after a 1-d incubation after cRNA injection (incubated at 17° C. in 96 mM NaCl, 2 mM KCl, 5 mM HEPES, 1 mM MgCl2, 1.8 mM CaCl2, and 50 μg/ml gentamycin, pH 7.6 with NaOH) using two-electrode voltage-clamp recording techniques (OC-725C; Warner Instruments) with a 150-μl recording chamber. Data were filtered at 4 kHz and digitized at 20 kHz using pClamp™ 10 software (Molecular Devices). Microelectrode resistances were 0.5-1.5 MΩ when filled with 3 M KCl. For Kv chimera channel experiments, the external recording solution contained (mM): 50 KCl, 50 NaCl, 5 HEPES, 1 MgCl2, and 0.3 CaCl2, pH 7.6 with NaOH. For rNav1.2a experiments, the external recording solution contained (mM): 100 NaCl, 5 HEPES, 1 MgCl2, and 1.8 CaCl2, pH 7.6 with NaOH. All experiments were performed at ˜22° C. Leak and background conductances, identified by blocking the channel with agitoxin-2 (provided by K. J. Swartz), have been subtracted for all of the Kv channel currents shown. […] Voltage-activation relationships were obtained by measuring tail currents for Kv channels or steady-state currents and calculating conductance for Nav channels, and a single Boltzmann function was fitted to the data according to I/Imax=[1c+cexp(−zF(Vc−cV1/2)/RT)]^−1, where I/Imax is the normalized tail-current amplitude, z is the equivalent charge, V1/2 is the half-activation voltage, F is Faraday's constant, R is the gas constant, and T is temperature in kelvin. For all channels, voltage-activation relationships were recorded in the absence and presence of toxin. The ratio of currents (I/I0) recorded in the presence (I) and absence (I0) of toxin was calculated for voltages typically ranging from −140 to 10 cmV, depending on the construct. […] The apparent equilibrium dissociation constant (apparent KD) for Kv channels was calculated according to KD=((1/(1c−cFu^1/4))c−c1)[toxin], assuming four independent toxin-binding sites per channel. Results are given as mean±SEM unless noted otherwise. Offline data analysis was performed using Clampfit 10™ (Molecular Devices), Origin 8.0™ (OriginLab), and Excel™ (Microsoft). All chemicals were obtained from Sigma-Aldrich.
Representative sodium currents were elicited by a 50-ms depolarization to a suitable membrane voltage (−20 to −15 mV) before (black) and after toxin addition (green) from a holding voltage of −90 mV. […] For each toxin, K^+ currents were elicited by a 300-ms depolarization to 0 mV from a holding voltage of −90 mV (tail voltage was −60 mV). […] For each toxin, K^+ currents (top) were elicited by a 300-ms depolarization near the foot of the voltage-activation curve (bottom) from a holding voltage of −90 mV.

[2] = tested on: rNav1.2a/Kv2.1 VSD II paddle chimera; assay: Two-electrode voltage-clamp, rNav1.2a/Kv2.1 VSD II paddle chimera in Xenopus oocytes; format: cell-based, rat
Chain of rNav1.2a/Kv2.1 VSD II paddle chimera (P04775 832-856 limits assumed, stated change not applied): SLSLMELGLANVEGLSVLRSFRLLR
Source text: The DNA sequence of rat (r)Nav1.2a (provided by A. Goldin, University of California, Irvine, Irvine, Calif.), rKv2.1 (provided by K. J. Swartz, National Institutes of Health), and the rNav1.2a/Kv2.1 VSD II or IV chimera was confirmed by automated DNA sequencing, and cRNA was synthesized using T7 polymerase (mMessage mMachine™ kit; Life Technologies) after linearizing the DNA with appropriate restriction enzymes. Channels were expressed in Xenopus oocytes (obtained from Xenopus 1) and studied after a 1-d incubation after cRNA injection (incubated at 17° C. in 96 mM NaCl, 2 mM KCl, 5 mM HEPES, 1 mM MgCl2, 1.8 mM CaCl2, and 50 μg/ml gentamycin, pH 7.6 with NaOH) using two-electrode voltage-clamp recording techniques (OC-725C; Warner Instruments) with a 150-μl recording chamber. Data were filtered at 4 kHz and digitized at 20 kHz using pClamp™ 10 software (Molecular Devices). Microelectrode resistances were 0.5-1.5 MΩ when filled with 3 M KCl. For Kv chimera channel experiments, the external recording solution contained (mM): 50 KCl, 50 NaCl, 5 HEPES, 1 MgCl2, and 0.3 CaCl2, pH 7.6 with NaOH. For rNav1.2a experiments, the external recording solution contained (mM): 100 NaCl, 5 HEPES, 1 MgCl2, and 1.8 CaCl2, pH 7.6 with NaOH. All experiments were performed at ˜22° C. Leak and background conductances, identified by blocking the channel with agitoxin-2 (provided by K. J. Swartz), have been subtracted for all of the Kv channel currents shown. […]. After the addition of the toxin to the recording chamber, the equilibration between the toxin and the channel was monitored using weak depolarizations elicited at 5- or 10-s (R1629A/L1630A mutant) intervals. Voltage-activation relationships were obtained by measuring tail currents for Kv channels or steady-state currents and calculating conductance for Nav channels, and a single Boltzmann function was fitted to the data according to I/Imax=[1c+cexp(−zF(Vc−cV1/2)/RT)]^−1, where I/Imax is the normalized tail-current amplitude, z is the equivalent charge, V1/2 is the half-activation voltage, F is Faraday's constant, R is the gas constant, and T is temperature in kelvin. For all channels, voltage-activation relationships were recorded in the absence and presence of toxin. The ratio of currents (I/I0) recorded in the presence (I) and absence (I0) of toxin was calculated for voltages typically ranging from −140 to 10 cmV, depending on the construct. […] The apparent equilibrium dissociation constant (apparent KD) for Kv channels was calculated according to KD=((1/(1c−cFu^1/4))c−c1)[toxin], assuming four independent toxin-binding sites per channel. Results are given as mean±SEM unless noted otherwise. Offline data analysis was performed using Clampfit 10™ (Molecular Devices), Origin 8.0™ (OriginLab), and Excel™ (Microsoft). […]

Chain of rNav1.2a/Kv2.1 VSD IV paddle chimera (P04775 1605-1636 limits assumed, stated change not applied): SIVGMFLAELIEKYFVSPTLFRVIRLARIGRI

B1: CssIV: β-scorpion toxin from Centruroides suffusus suffusus (protein)
chain: KEGYLVNSYTGCKFECFKLGDNDYCLRECRQQYGKGSGGYCYAFGCWCTHLYEQAVVWPLPNKTCN
effect on VSD IV chimera voltage-activation relationship ([1]; 1 μM toxin): does not influence | concentration required to begin inhibiting the chimera [2]: 1 µM | depolarizing shift in V1/2 ([2]; 1 μM toxin, Boltzmann fit, n=3): ~14 mV | V1/2 in the presence of toxin ([2]; 1 μM toxin, control 33±2 mV): 47±1 mV

B2: AaHII: Nav channel-selective α-scorpion toxin from Androctonus australis hector; model toxin (protein)
chain: VKDGYIVDDVNCTYFCGRNAYCNEECTKLKGESGYCQWASPYGNACYCYKLPDHVRTKGPGRCH
Kd ([1]; 100 nM AaHII, n=3, mean±SEM, read-out: apparent KD): 1.01 µM | K+ current inhibition of VSD IV chimera ([1]; 100 nM toxin): influenced less; also recorded: influenced to a much lesser extent | interaction with VSD II paddle chimera [2]: no interaction was observed

Reference: patent US10429300B2, “Surface plasmon resonance approach to monitor protein-ligand interactions” (The Johns Hopkins University, priority 2015, dated 2019)
